Assay results reported in US20260265379A1.

Target: PD-L1 at the surface of transduced cells (UniProt Q9NZQ7)
Assay: flow cytometry, CHO-PD-L1 cells

PD-L1 at the surface of transduced cells, sequence (Q9NZQ7 19-290 limits assumed): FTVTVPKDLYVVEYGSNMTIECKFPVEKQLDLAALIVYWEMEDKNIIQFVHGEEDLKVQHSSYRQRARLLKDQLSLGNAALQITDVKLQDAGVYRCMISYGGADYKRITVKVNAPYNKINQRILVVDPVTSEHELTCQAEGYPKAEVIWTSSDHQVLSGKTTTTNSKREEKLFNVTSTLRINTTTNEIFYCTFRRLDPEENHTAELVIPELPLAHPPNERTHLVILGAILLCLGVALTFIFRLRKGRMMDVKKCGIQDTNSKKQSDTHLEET

- MFI at 10 nM: 38000 MFI
- MFI at 100 nM: 41600 MFI
Substance: Isotype Durvalumab (antibody)
